{
  "source": "paper PMC10171305",
  "origin": "cited, not measured here",
  "key": {"[1]": {"molecular_target": "Spike (SARS-CoV-2) (UniProt P0DTC2)"}, "[2]": {"molecular_target": "Spike (SARS-CoV-2) (UniProt P0DTC2)", "remark": "listed apart in the source"}},
  "note": "Read-outs that look alike come from different tables or passages of the source.",
  "data": [
    {"substance": "ASGR1 (from UniProt P07306)", "values": [
      {"measurement": "Kd", "setting": "[1]", "result": 94.8, "unit": "nM"}
    ]},
    {"substance": "KREMEN1 (from UniProt Q96MU8)", "values": [
      {"measurement": "Kd", "setting": "[2]", "result": 19.3, "unit": "nM"}
    ]}
  ]
}
